This note sets out measurements from the Human Domainome abundance scans (Beltran et al. 2025).

The chains are these.
B1: Tripartite motif-containing protein 6, residues 93 to 134; numbered along this chain, Q9C030 (parent)
chain: KAVLCADHGEKLQLFCQEDGKVICWLCERSQEHRGHHTFLVE

± gives the uncertainty stated by the source.

In this series the parent is B1. Put plainly: abundance fitness (aPCA) (normalised: wild type 0, dead -1); higher = more abundant; growth selection in yeast, the domain comes from the species named. Conditions: Homo sapiens.
Turning to KAVLCADHGEKLQLFCQEDGKVICWLCEQSQEHRGHHTFLVE [R29Q], the abundance fitness was -0.164 ± 0.074.

Turning to KAVLCADHGEKLQLFCQEDGKVICWLCEKSQEHRGHHTFLVE [R29K], the abundance fitness is -0.05 ± 0.073.

Regarding KAVLCADHGEKLQLFCQEDGKVICWLCEYSQEHRGHHTFLVE [R29Y], the abundance fitness was -0.24 ± 0.16.

KAVLCADHGEKLQLFCQEDGKVICWLCEVSQEHRGHHTFLVE [R29V]: the abundance fitness was -0.299 ± 0.074.

In the case of KAVLCADHGEKLQLFCQEDGKVICWLCEFSQEHRGHHTFLVE [R29F], the abundance fitness was -0.458 ± 0.33.

With KAVLCADHGEKLQLFCQEDGKVICWLCEISQEHRGHHTFLVE [R29I], the abundance fitness was -0.207 ± 0.11.

KAVLCADHGEKLQLFCQEDGKVICWLCEMSQEHRGHHTFLVE [R29M]: the abundance fitness is -0.121 ± 0.098.

On to KAVLCADHGEKLQLFCQEDGKVICWLCESSQEHRGHHTFLVE [R29S], for which the abundance fitness is -0.289 ± 0.082.

For KAVLCADHGEKLQLFCQEDGKVICWLCEHSQEHRGHHTFLVE [R29H], the abundance fitness was 0.051 ± 0.19.

KAVLCADHGEKLQLFCQEDGKVICWLCEGSQEHRGHHTFLVE [R29G]: the abundance fitness was -0.189 ± 0.066.

Take KAVLCADHGEKLQLFCQEDGKVICWLCELSQEHRGHHTFLVE [R29L]: the abundance fitness is -0.175 ± 0.082.

Turning to KAVLCADHGEKLQLFCQEDGKVICWLCERPQEHRGHHTFLVE [S30P], the abundance fitness is -0.7 ± 0.13.

As to KAVLCADHGEKLQLFCQEDGKVICWLCERTQEHRGHHTFLVE [S30T], the abundance fitness was -0.15 ± 0.18.

Consider KAVLCADHGEKLQLFCQEDGKVICWLCERCQEHRGHHTFLVE [S30C], for which the abundance fitness is -0.104 ± 0.11.

KAVLCADHGEKLQLFCQEDGKVICWLCERMQEHRGHHTFLVE [S30M]: the abundance fitness came to 0.026 ± 0.081.

With KAVLCADHGEKLQLFCQEDGKVICWLCERGQEHRGHHTFLVE [S30G], the abundance fitness was -0.135 ± 0.042.

For the variant KAVLCADHGEKLQLFCQEDGKVICWLCERHQEHRGHHTFLVE [S30H], the abundance fitness is -0.209 ± 0.23.

For the variant KAVLCADHGEKLQLFCQEDGKVICWLCERWQEHRGHHTFLVE [S30W], the abundance fitness is -0.686 ± 0.11.

For KAVLCADHGEKLQLFCQEDGKVICWLCERRQEHRGHHTFLVE [S30R], the abundance fitness is -0.168 ± 0.061.

Turning to KAVLCADHGEKLQLFCQEDGKVICWLCERDQEHRGHHTFLVE [S30D], the abundance fitness turned out to be 0.002 ± 0.39.

Turning to KAVLCADHGEKLQLFCQEDGKVICWLCERQQEHRGHHTFLVE [S30Q], the abundance fitness amounted to 0.022 ± 0.11.

In the case of KAVLCADHGEKLQLFCQEDGKVICWLCERKQEHRGHHTFLVE [S30K], the abundance fitness was -0.307 ± 0.11.

With KAVLCADHGEKLQLFCQEDGKVICWLCERFQEHRGHHTFLVE [S30F], the abundance fitness was -0.575 ± 0.18.

For KAVLCADHGEKLQLFCQEDGKVICWLCEREQEHRGHHTFLVE [S30E], the abundance fitness was -0.148 ± 0.066.

As for KAVLCADHGEKLQLFCQEDGKVICWLCERIQEHRGHHTFLVE [S30I], the abundance fitness is 0.167 ± 0.39.

KAVLCADHGEKLQLFCQEDGKVICWLCERAQEHRGHHTFLVE [S30A]: the abundance fitness was -0.016 ± 0.063.

As for KAVLCADHGEKLQLFCQEDGKVICWLCERYQEHRGHHTFLVE [S30Y], the abundance fitness is -0.313 ± 0.13.

As to KAVLCADHGEKLQLFCQEDGKVICWLCERNQEHRGHHTFLVE [S30N], the abundance fitness is -0.142 ± 0.093.

Consider KAVLCADHGEKLQLFCQEDGKVICWLCERSQEHRGHHGFLVE [T38G], for which the abundance fitness is -0.177 ± 0.12.

As to KAVLCADHGEKLQLFCQEDGKVICWLCERSQEHRGHHEFLVE [T38E], the abundance fitness is -0.265 ± 0.43.

KAVLCADHGEKLQLFCQEDGKVICWLCERSQEHRTHHTFLVE [G35T]: the abundance fitness is -0.079 ± 0.073.

Turning to KAVLCADHGEKLQLFCQEDGKVICWLCERSQEHRAHHTFLVE [G35A], the abundance fitness is -0.116 ± 0.05.

As for KAVLCADHGEKLQLFCQEDGKVICWLCERSQEHRSHHTFLVE [G35S], the abundance fitness was -0.096 ± 0.058.

Regarding KAVLCADHGEKLQLFCQEDGKVICWLCERSQEHRLHHTFLVE [G35L], the abundance fitness is -0.202 ± 0.065.

As to KAVLCADHGEKLQLFCQEDGKVICWLCERSQEHRQHHTFLVE [G35Q], the abundance fitness is -0.215 ± 0.074.

KAVLCADHGEKLQLFCQEDGKVICWLCERSQEHRKHHTFLVE [G35K]: the abundance fitness is -0.244 ± 0.19.

Regarding KAVLCADHGEKLQLFCQEDGKVICWLCERSQEHRWHHTFLVE [G35W], the abundance fitness is -0.377 ± 0.061.

For KAVLCADHGEKLQLFCQEDGKVICWLCERSQEHRDHHTFLVE [G35D], the abundance fitness came out at 0.022 ± 0.15.

As for KAVLCADHGEKLQLFCQEDGKVICWLCERSQEHRVHHTFLVE [G35V], the abundance fitness is -0.41 ± 0.064.

On to KAVLCADHGEKLQLFCQEDGKVICWLCERSQEHRIHHTFLVE [G35I], for which the abundance fitness was -0.377 ± 0.38.

In the case of KAVLCADHGEKLQLFCQEDGKVICWLCERSQEHRPHHTFLVE [G35P], the abundance fitness was -0.366 ± 0.1.

Take KAVLCADHGEKLQLFCQEDGKVICWLCERSQEHRMHHTFLVE [G35M]: the abundance fitness was -0.397 ± 0.094.

With KAVLCADHGEKLQLFCQEDGKVICWLCERSQEHRRHHTFLVE [G35R], the abundance fitness was -0.195 ± 0.053.

On to KAVLCADHGEKLQLFCQEDGKVICWLCERSQEHRGHLTFLVE [H37L], for which the abundance fitness is -0.431 ± 0.2.

KAVLCADHGEKLQLFCQEDGKVICWLCERSQEHRGHWTFLVE [H37W]: the abundance fitness is -0.503 ± 0.13.

KAVLCADHGEKLQLFCQEDGKVICWLCERSQEHRGHVTFLVE [H37V]: the abundance fitness was -0.265 ± 0.46.

KAVLCADHGEKLQLFCQEDGKVICWLCERSQEHRGHCTFLVE [H37C]: the abundance fitness is -0.17 ± 0.13.

In the case of KAVLCADHGEKLQLFCQEDGKVICWLCERSQEHRGHRTFLVE [H37R], the abundance fitness came out at 0.002 ± 0.079.

KAVLCADHGEKLQLFCQEDGKVICWLCERSQEHRGHFTFLVE [H37F]: the abundance fitness is 0.117 ± 0.2.

In the case of KAVLCADHGEKLQLFCQEDGKVICWLCERSQEHRGHITFLVE [H37I], the abundance fitness is -0.032 ± 0.29.

With KAVLCADHGEKLQLFCQEDGKVICWLCERSQEHRGHSTFLVE [H37S], the abundance fitness is -0.123 ± 0.17.

On to KAVLCADHGEKLQLFCQEDGKVICWLCERSQEHPGHHTFLVE [R34P], for which the abundance fitness is -0.386 ± 0.14.

Turning to KAVLCADHGEKLQLFCQEDGKVICWLCERSQEHGGHHTFLVE [R34G], the abundance fitness was -0.161 ± 0.055.

For the variant KAVLCADHGEKLQLFCQEDGKVICWLCERSQEHTGHHTFLVE [R34T], the abundance fitness amounted to 0.071 ± 0.072.

As to KAVLCADHGEKLQLFCQEDGKVICWLCERSQEHAGHHTFLVE [R34A], the abundance fitness is -0.007 ± 0.062.

Take KAVLCADHGEKLQLFCQEDGKVICWLCERSQEHVGHHTFLVE [R34V]: the abundance fitness worked out at 0.035 ± 0.053.

With KAVLCADHGEKLQLFCQEDGKVICWLCERSQEHHGHHTFLVE [R34H], the abundance fitness is 0.102 ± 0.062.

For the variant KAVLCADHGEKLQLFCQEDGKVICWLCERSQEHNGHHTFLVE [R34N], the abundance fitness was -0.058 ± 0.12.

As to KAVLCADHGEKLQLFCQEDGKVICWLCERSQEHEGHHTFLVE [R34E], the abundance fitness is -0.05 ± 0.076.

With KAVLCADHGEKLQLFCQEDGKVICWLCERSQEHFGHHTFLVE [R34F], the abundance fitness worked out at 0.058 ± 0.23.
